Experimental data: patent US20250333520A1 (SYNTHEKINE, published 2025)

T1: Fc fused hCD122 (monovalent) (human, UniProt P14784 27-240, limits assumed)
T1 construct: described only as Fc fused, monovalent
T1 sequence (looked up): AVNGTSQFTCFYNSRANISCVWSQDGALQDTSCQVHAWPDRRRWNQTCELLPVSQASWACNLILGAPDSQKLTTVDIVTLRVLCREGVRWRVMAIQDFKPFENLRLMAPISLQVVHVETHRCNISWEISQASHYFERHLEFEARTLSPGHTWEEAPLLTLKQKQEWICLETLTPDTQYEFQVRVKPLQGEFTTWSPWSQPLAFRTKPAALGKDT

T2: Fc fused hCD132 (monovalent) (human, UniProt P31785 23-262, limits assumed)
T2 construct: described only as Fc fused, monovalent
T2 sequence (looked up): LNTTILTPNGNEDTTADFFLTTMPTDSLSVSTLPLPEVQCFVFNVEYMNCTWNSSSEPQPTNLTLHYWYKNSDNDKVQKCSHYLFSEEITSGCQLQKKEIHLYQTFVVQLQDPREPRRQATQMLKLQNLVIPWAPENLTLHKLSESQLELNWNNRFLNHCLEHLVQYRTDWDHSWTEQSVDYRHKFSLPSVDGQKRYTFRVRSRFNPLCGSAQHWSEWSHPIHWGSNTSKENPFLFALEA

B1: DR736(DR588-DR231) (bispecific antibody)
chain: QVQLQESGGGSVQVGGSLKLSCAASGYTYSSYYCMGWFRQAPGKEREGVAAIDSDGSTSYADSVKGRFTISQDDAKNTLYLQMNSLKPEDTAMYYCAASYEVVDCYPSGYGQDYWGKGTQVTVSSGGGSQVQLQESGGGSVQAGGSLRLSCTASGFTFDDREMNWYRQAPGNECELVSTISSDGSTYYADSVKGRFTISQDNAKNTVYLQMDSVKPEDTAVYYCAADFMIAIQAPGAGCWGQGTQVTVSSASHHHHHH
notes: DR588 VHH - GGGS - DR231 VHH - ASHHHHHH; also called anti-IL2Rb/g VHH2 DR736; non-PEGylated DR736
B2: DR638(DR229-DR587) (bispecific antibody)
chain: QVQLQESGGGLVQPGGSLRLSCTASGFSFSSYPMTWARQAPGKGLEWVSTIASDGGSTAYAASVEGRFTISRDNAKSTLYLQLNSLKTEDTAMYYCTKGYGDGTPAPGQGTQVTVSSGGGSQVQLQESGGGSVQVGGSLRLSCATSGDTKSIRCMGWFRQTPGKEREGIAAIDREGFATYADSVYDRFTIAQDNAQNTLYLEMNALKPEDTAMYYCAAQNMCRVVRGAMTGVDYWGKGTQVTVSSASHHHHHH
notes: DR229 VHH - GGGS - DR587 VHH - ASHHHHHH; also called anti-IL2Rb/g VHH2 DR638; non-PEGylated DR638
B3: DR638-PEG40K2a (bispecific antibody)
chain: B2 chain
modifications: one 40 KDa branched polyethylene glycol (mono-PEGylated, coupled with sodium cyanoborohydride at pH ~6.3; residue not stated)
notes: also called PEGylated DR638

Target: T1, Fc fused hCD122 (monovalent)
Assay: SPR, VHH dimer in the mobile phase, Fc fused hCD122 immobilized
Protocol: (§1) The affinity of the non-PEGylated and the PEGylated forms of DR638 and DR736 prepared in substantial accordance with the foregoing were evaluated by surface plasmon resonance with the VHH dimer molecule in the mobile phase and an immobilized Fc fused hCD122 and hCD132 monovalent and bivalent hCD122/hCD132 Fc construct.

Row | Kd | Binder
1 | ~21 nM | B1
2 | < 0.5 nM | B2
3 | ~1.1 nM | B3

Target: T2, Fc fused hCD132 (monovalent)
Assay: SPR, VHH dimer in the mobile phase, Fc fused hCD132 immobilized
Protocol: as §1

Row | Kd | Binder
4 | ~6.5 nM | B1
5 | ~0.5 nM | B2
6 | ~16.3 nM | B3
